Test results published in the supplement of paper PMC10126150.
± gives the standard deviation of the averaged measurements.

Tested on: ATP
Assay: switch fluorescence ratio, 500 uM ATP over buffer (Cy3 cluster intensity, sum of 5 cycles each) (fold (ratio)); higher = stronger signal-on switching upon ATP binding; sequences stand for … in TCGTCGGCAGCGTCAGATGTGTATAAGAGACAGTTTTTTTTTTTTTTTTTTTTTTTTT…TC
Details: aptamer strand: ATP DNA aptamer (quencher-CACCTGGGGGAGTATTGCGGAGGAAGG + anchor), 100 nM annealed; ATP concentration: 500 uM
Outline: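 For every switch-domain sequence, the fluorescence ratio is the mean of per-cluster values, each being summed target-cycle Cy3 intensity over summed buffer-cycle Cy3 intensity. Clusters outside 100-1000 RFU were excluded. On a modified Illumina MiSeq flow-cell, the Cy3-labelled switching-strand clusters were annealed to 100 nM quencher-labelled ATP aptamer, imaged in selection buffer and then after 15 min with 500 uM ATP at 22 °C. Five such cycles were run, with NaOH stripping and re-annealing between them.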
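Also: ATP exposure 15 min at 22 °C before imaging.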

| Sequence | switch fluorescence ratio |
| --- | --- |
| GCGACATAGG | 0.964 ± 0.042 |
| GCGACATGAT | 1.025 ± 0.0011 |
| GCGACTTGGG | 1.04 ± 0.054 |
| GCGAGAGCTA | 0.9602 ± 0.0021 |
| GCGAGGGGCA | 0.992 ± 0.025 |
| GCGAGGGTCT | 1.01 ± 0.027 |
| GCGAGTACCG | 1.02 ± 0.032 |
| GCGAGTTCTA | 0.963 ± 0.025 |
| GCGATAAAGC | 1.03 ± 0.041 |
| GCGATGAATC | 1.04 ± 0.04 |
| GCGATGCCTC | 1.09 ± 0.043 |
| GCGATGTATA | 1.02 ± 0.013 |
| GCGATGTTTG | 0.998 ± 0.023 |
| GCGATTAAGG | 0.9904 ± 0.0013 |
| GCGATTAGAG | 1 ± 0.02 |
| GCGATTATCT | 1.002 ± 0.0064 |
| GCGATTCGGG | 0.978 ± 0.01 |
| GCGATTGAGC | 0.9808 ± 0.004 |
| GCGATTTTTT | 0.974 ± 0.021 |
| GCGCAGTACG | 4.91 ± 0.71 |
| GCGCATTGTT | 1.026 ± 0.0094 |
| GCGCCAGGCG | 0.998 ± 0.025 |
| GCGCCCAACT | 1.03 ± 0.035 |

| Sequence | switch fluorescence ratio |
| --- | --- |
| GCGCCCGTGG | 1.01 ± 0.034 |
| GCGCCCTGTG | 1.122 ± 0.0062 |
| GCGCGAAGGA | 1.03 ± 0.053 |
| GCGCGCGTTC | 1.03 ± 0.045 |
| GCGCGGAGGA | 1.03 ± 0.029 |
| GCGCGGGGGA | 1.02 ± 0.025 |
| GCGCGGTGGC | 1.09 ± 0.015 |
| GCGCGTTAGC | 1.007 ± 0.0014 |
| GCGCTGGGGG | 1.07 ± 0.081 |
| GCGCTTGCTC | 1.13 ± 0.013 |
| GCGCTTTTGC | 1.04 ± 0.061 |
| GCGGAATATG | 1.13 ± 0.018 |
| GCGGAATGCT | 1.2 ± 0.32 |
| GCGGACCGGG | 1.04 ± 0.031 |
| GCGGAGGGGG | 1 ± 0.035 |
| GCGGAGGGGT | 1.02 ± 0.049 |
| GCGGATAAGC | 1.01 ± 0.039 |
| GCGGATGAGC | 0.995 ± 0.013 |
| GCGGATGGCA | 1 ± 0.038 |
| GCGGCACGGG | 1.02 ± 0.054 |
| GCGGCGGAAG | 1.025 ± 0.0042 |
| GCGGGAACGG | 0.992 ± 0.017 |
| GCGGGAAGGG | 0.995 ± 0.033 |

| Sequence | switch fluorescence ratio |
| --- | --- |
| GCGGGAGTTT | 0.9667 ± 0.0015 |
| GCGGGATTGG | 1.001 ± 0.0077 |
| GCGGGCAAGT | 0.9903 ± 0.00062 |
| GCGGGCACCA | 0.995 ± 0.024 |
| GCGGGCGCCC | 1.011 ± 0.006 |
| GCGGGCGTTC | 1.0164 ± 0.0005 |
| GCGGGCTAAC | 1.17 ± 0.24 |
| GCGGGGAGCG | 1.001 ± 0.0031 |
| GCGGGGCCAT | 1.02 ± 0.028 |
| GCGGGGCCCA | 1.01 ± 0.013 |
| GCGGGGCCTG | 0.993 ± 0.051 |
| GCGGGGCTCA | 1.12 ± 0.11 |
| GCGGGGGAAC | 1.018 ± 0.0055 |
| GCGGGGGACC | 1.011 ± 0.0051 |
| GCGGGGGATG | 1.01 ± 0.034 |
| GCGGGGGCAG | 0.993 ± 0.013 |
| GCGGGGGCAT | 0.964 ± 0.012 |
| GCGGGGGCGC | 0.985 ± 0.016 |
| GCGGGGGGAC | 1.01 ± 0.015 |
| GCGGGGGGGG | 1.02 ± 0.041 |
| GCGGGGGTAC | 1.11 ± 0.077 |
| GCGGGGTTTT | 1.01 ± 0.029 |
| GCGGGTCGGG | 0.969 ± 0.054 |

| Sequence | switch fluorescence ratio |
| --- | --- |
| GCGGTACAGC | 0.9782 ± 0.0069 |
| GCGGTAGACG | 1.01 ± 0.021 |
| GCGGTAGTTT | 0.9974 ± 0.0066 |
| GCGGTGACCG | 0.9978 ± 0.0046 |
| GCGGTGAGAT | 0.989 ± 0.012 |
| GCGGTGGACG | 0.947 ± 0.077 |
| GCGGTGGGGA | 1.03 ± 0.027 |
| GCGGTTAAGG | 0.9577 ± 0.006 |
| GCGGTTCTC | 1.03 ± 0.029 |
| GCGGTTGCGT | 0.971 ± 0.057 |
| GCGTAAATTG | 0.9923 ± 0.0053 |
| GCGTAAGTG | 0.986 ± 0.041 |
| GCGTACTGTG | 0.994 ± 0.022 |
| GCGTAGAGCG | 0.9878 ± 0.0012 |
| GCGTATTCTA | 1 ± 0.033 |
| GCGTCAACTC | 1.1 ± 0.016 |
| GCGTCACGTC | 1.05 ± 0.054 |
| GCGTCCACCA | 1.03 ± 0.067 |
| GCGTCCACGG | 1.017 ± 0.01 |
| GCGTCCCGTG | 0.985 ± 0.11 |
| GCGTCCGCTG | 1.22 ± 0.039 |
| GCGTCGGGGG | 1.01 ± 0.028 |
| GCGTGACCGC | 0.995 ± 0.04 |

| Sequence | switch fluorescence ratio |
| --- | --- |
| GCGTGACGTA | 1 ± 0.088 |
| GCGTGCAGGA | 1.027 ± 0.01 |
| GCGTGCATTC | 1.05 ± 0.017 |
| GCGTGCGTGT | 1.03 ± 0.032 |
| GCGTGTCCGT | 1.01 ± 0.025 |
| GCGTGTCTAT | 0.991 ± 0.019 |
| GCGTTAATAA | 1.06 ± 0.038 |
| GCGTTCAGGT | 1.01 ± 0.02 |
| GCGTTCCTTG | 1.071 ± 0.0017 |
| GCGTTGAGGA | 1.04 ± 0.08 |
| GCGTTGGAGC | 0.9949 ± 0.0072 |
| GCGTTGGCCA | 1.01 ± 0.016 |
| GCGTTGTGTG | 1.02 ± 0.027 |
| GCGTTGTTTG | 0.958 ± 0.042 |
| GCGTTTAGAA | 0.987 ± 0.036 |
| GCGTTTCGGG | 0.968 ± 0.018 |
| GCGTTTGCCC | 1.06 ± 0.072 |
| GCGTTTTTTG | 0.9912 ± 0.0054 |
| GCTAAAGTCG | 0.9814 ± 0.005 |
| GCTAACGGCA | 0.994 ± 0.03 |
| GCTAATAAAT | 1.046 ± 0.0035 |
| GCTAATATTA | 1.03 ± 0.021 |
| GCTACACGGC | 1.02 ± 0.033 |

| Sequence | switch fluorescence ratio |
| --- | --- |
| GCTACACTGA | 1.04 ± 0.023 |
| GCTACAGCAT | 1.06 ± 0.031 |
| GCTACCACTC | 1.089 ± 0.01 |
| GCTACCCATC | 1.1 ± 0.05 |
| GCTACTTTTG | 0.998 ± 0.027 |
| GCTAGAAGTA | 1.02 ± 0.049 |
| GCTAGAGGGT | 1.02 ± 0.027 |
| GCTAGCAATG | 0.982 ± 0.037 |
| GCTAGCTGGT | 0.989 ± 0.021 |
| GCTAGGAAGT | 0.983 ± 0.022 |
| GCTAGGACGT | 0.997 ± 0.03 |
| GCTAGGGTAG | 1.03 ± 0.058 |
| GCTAGTGCTA | 0.996 ± 0.04 |
| GCTATAGTCG | 1.022 ± 0.0027 |
| GCTATCATGG | 0.9727 ± 0.0076 |
| GCTATCTCTT | 1.01 ± 0.012 |
| GCTATTGGTG | 1.06 ± 0.019 |
| GCTATTGTTC | 0.967 ± 0.039 |
| GCTATTTAGG | 1 ± 0.024 |
| GCTCAAAGCT | 1.01 ± 0.043 |
| GCTCATTATT | 1.014 ± 0.0015 |
| GCTCCAATCG | 1.13 ± 0.049 |
| GCTCCAGGGG | 2.88 ± 2.5 |

| Sequence | switch fluorescence ratio |
| --- | --- |
| GCTCCAGGTA | 1.577 ± 0.0021 |
| GCTCCATTTG | 0.983 ± 0.021 |
| GCTCCCTTTC | 1.84 ± 0.08 |
| GCTCCTAAAA | 1.1039 ± 0.00034 |
| GCTCGAGTTG | 0.9967 ± 0.0094 |
| GCTCGATTGG | 0.9766 ± 0.0057 |
| GCTCGCCGAT | 1.01 ± 0.016 |
| GCTCGCCTTA | 0.999 ± 0.039 |
| GCTCGGCCCG | 1.04 ± 0.061 |
| GCTCGGGTTG | 0.984 ± 0.041 |
| GCTCGTTAGG | 0.995 ± 0.029 |
| GCTCTCATAT | 1.027 ± 0.0086 |
| GCTCTGAGGG | 1.056 ± 0.009 |
| GCTCTGTGGG | 0.967 ± 0.024 |
| GCTCTGTGTT | 0.993 ± 0.017 |
| GCTCTGTTTT | 1 ± 0.011 |
| GCTCTTGACA | 1 ± 0.011 |
| GCTCTTGGTT | 1.02 ± 0.045 |
| GCTGAAGGCT | 0.962 ± 0.03 |
